Reference: article PMC5934667 (Nucleic Acids Research, 2018)
Where a chain is given by its changes, count along the chain named. Names may count otherwise.

Experiments:
[1] = molecular target: the molecule itself; test: negative-stain EM, helical reconstruction
RAD51 WT [2] = molecular target: T1, RAD51 WT (human, UniProt Q06609 1-339); test: EMSA
RAD51 KR [3] = molecular target: T2, RAD51 KR (human, UniProt Q06609 1-339, K133R); test: EMSA
RAD51 KA [4] = molecular target: T3, RAD51 KA (human, UniProt Q06609 1-339, K133A); test: EMSA
RAD51 WT [5] = molecular target: T1, RAD51 WT; test: nuclease protection
RAD51 KA [6] = molecular target: T3, RAD51 KA; test: nuclease protection
RAD51 KR [7] = molecular target: T2, RAD51 KR; test: nuclease protection
RAD51 KA [8] = molecular target: T3, RAD51 KA; test: stopped-flow Cy3 fluorescence
RAD51 KR [9] = molecular target: T2, RAD51 KR; test: stopped-flow Cy3 fluorescence
RecA = RecA (bacterial, UniProt P0A7G6 1-353); test: stopped-flow Cy3 fluorescence
Sequence of RecA (P0A7G6 whole entry): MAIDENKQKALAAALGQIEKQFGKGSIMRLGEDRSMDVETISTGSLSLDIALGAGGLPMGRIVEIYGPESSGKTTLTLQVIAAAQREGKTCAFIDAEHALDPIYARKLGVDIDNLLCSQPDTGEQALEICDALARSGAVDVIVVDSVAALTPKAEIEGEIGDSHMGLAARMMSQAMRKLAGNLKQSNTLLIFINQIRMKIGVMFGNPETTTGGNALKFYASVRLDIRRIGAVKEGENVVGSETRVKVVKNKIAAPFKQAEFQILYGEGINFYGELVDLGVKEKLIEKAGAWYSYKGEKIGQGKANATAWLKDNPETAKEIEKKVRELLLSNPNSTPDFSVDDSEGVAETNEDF

B1: Human RAD51 K133R (natural protein)
chain: MAMQMQLEANADTSVEEESFGPQPISRLEQCGINANDVKKLEEAGFHTVEAVAYAPKKELINIKGISEAKADKILAEAAKLVPMGFTTATEFHQRRSEIIQITTGSKELDKLLQGGIETGSITEMFGEFRTGRTQICHTLAVTCQLPIDRGGGEGKAMYIDTEGTFRPERLLAVAERYGLSGSDVLDNVAYARAFNTDHQTQLLYQASAMMVESRYALLIVDSATALYRTDYSGRGELSARQMHLARFLRMLLRLADEFGVAVVITNQVVAQVDGAAMFAADPKKPIGGNIIAHASTTRLYLRKGRGETRICKIYDSPCLPEAEAMFAINADGVGDAKD
binding result [1]: binds

B2: Human RAD51 K133A (natural protein)
chain: B1 chain with R133A
binding result [1]: binds

B3: 83-mer (ssDNA)
DNA: AAATGAACATAAAGTAAATAAGTATAAGGATAATACAAAATAAGTAAATGAATAAACATAGAAAATAAAGTAAAGGATATAAA
binding result (RAD51 WT [2]): binds
binding result (RAD51 KR [3]): binds
binding result (RAD51 KA [4]): binds

B4: 61-mer (ssDNA)
DNA: GACGCTGCCGAATTCTACCAGTGCCTTGCTAGGACATCTTTGCCCACCTGCAGGTTCACCC
binding result (RAD51 WT [5]): binds
binding result (RAD51 KA [6]): binds
binding result (RAD51 KR [7]): binds

B5: 5'-Cy3-dT79 (ssDNA)
DNA: TTTTTTTTTTTTTTTTTTTTTTTTTTTTTTTTTTTTTTTTTTTTTTTTTTTTTTTTTTTTTTTTTTTTTTTTTTTTTTT
binding result (RAD51 KA [8]): binds
binding result (RAD51 KR [9]): binds
Kd (RecA): < 1100 nM
